Laboratory results: FireProtDB (doi:10.1073/pnas.84.13.4441)

B1: Tryptophan synthase alpha chain, P0A877 (parent)
chain: MERYESLFAQLKERKEGAFVPFVTLGDPGIEQSLKIIDTLIEAGADALELGIPFSDPLADGPTIQNATLRAFAAGVTPAQCFEMLALIRQKHPTIPIGLLMYANLVFNKGIDEFYAQCEKVGVDSVLVADVPVEESAPFRQAALRHNVAPIFICPPNADDDLLRQIASYGRGYTYLLSRAGVTGAENRAALPLNHLVAKLKEYNAAPPLQGFGISAPDQVKAAIDAGAAGAISGSAIVKIIEQHINEPEKMLAALKVFVQPMKAATRS

Variants of: B1
Settings: Escherichia coli (strain K12), 25 °C, GdnHCl, CD, Potassium phosphate 20 mM, reversible: yes, structure 1WQ5, whole UniProt chain shown

| Variant | ddG of mutation (higher = less stable) (pH 7) | unfolding free energy (pH 7) | ddG of mutation (higher = less stable) (pH 9) | unfolding free energy (pH 9) |
| --- | --- | --- | --- | --- |
| E49K | -0.2 kcal/mol | 18 kcal/mol | -0.39 kcal/mol | 18.4 kcal/mol |
| E49A | 0.08 kcal/mol | 18.1 kcal/mol | -0.59 kcal/mol | 18.6 kcal/mol |
| E49W | 0.97 kcal/mol | 17.2 kcal/mol | 1.1 kcal/mol | 16.9 kcal/mol |
| E49G | -0.08 kcal/mol | 18.2 kcal/mol | -0.6 kcal/mol | 18.6 kcal/mol |
| E49M | 0.05 kcal/mol | 18.1 kcal/mol | -0.52 kcal/mol | 18.5 kcal/mol |
| E49D | 0.8 kcal/mol | 17.4 kcal/mol | 0.03 kcal/mol | 17.9 kcal/mol |
| E49F | 0.86 kcal/mol | 17.3 kcal/mol |  |  |
| E49T | 0.62 kcal/mol | 17.5 kcal/mol | 0.26 kcal/mol | 17.7 kcal/mol |
| E49H | -0.33 kcal/mol | 18.5 kcal/mol | -0.67 kcal/mol | 18.6 kcal/mol |
| E49I | -0.46 kcal/mol | 18.6 kcal/mol | -1.24 kcal/mol | 19.2 kcal/mol |
| E49C | -0.01 kcal/mol | 18.2 kcal/mol | 0.13 kcal/mol | 17.8 kcal/mol |
| E49L | -0.44 kcal/mol | 18.6 kcal/mol | -1.04 kcal/mol | 19 kcal/mol |
| E49V | -0.14 kcal/mol | 18.3 kcal/mol |  |  |
| E49N |  |  | -0.27 kcal/mol | 18.2 kcal/mol |
| E49Q | 0.23 kcal/mol | 17.9 kcal/mol |  |  |
| E49P | 0 kcal/mol | 18.2 kcal/mol | -0.8 kcal/mol | 18.8 kcal/mol |
| E49Y | 0.17 kcal/mol | 18 kcal/mol | -0.26 kcal/mol | 18.2 kcal/mol |
| E49S | 0.59 kcal/mol | 17.6 kcal/mol | -0.09 kcal/mol | 18.1 kcal/mol |
